The values below come from PMC2767340.

Where two headings read alike, the source gives them in different places.

The target in test [1] is ΔEspP peptide labeled with carboxyfluorescein. In words: fluorescence polarisation. Background: In fluorescence polarisation assays a small probe gives low polarisation when free and higher when bound to something large.
Test [2] shares this target. The test is described as follows: fluorescence polarisation. This is another data set of the same source.
For test [3] the target is unchanged. In words: fluorescence polarisation. This is another data set of the same source.
Test [4] has the same target. In words: fluorescence polarisation. The source holds these as a separate data set.
For test [5], the target named is T1, FtsY (Escherichia coli), P10121.
T1 chain: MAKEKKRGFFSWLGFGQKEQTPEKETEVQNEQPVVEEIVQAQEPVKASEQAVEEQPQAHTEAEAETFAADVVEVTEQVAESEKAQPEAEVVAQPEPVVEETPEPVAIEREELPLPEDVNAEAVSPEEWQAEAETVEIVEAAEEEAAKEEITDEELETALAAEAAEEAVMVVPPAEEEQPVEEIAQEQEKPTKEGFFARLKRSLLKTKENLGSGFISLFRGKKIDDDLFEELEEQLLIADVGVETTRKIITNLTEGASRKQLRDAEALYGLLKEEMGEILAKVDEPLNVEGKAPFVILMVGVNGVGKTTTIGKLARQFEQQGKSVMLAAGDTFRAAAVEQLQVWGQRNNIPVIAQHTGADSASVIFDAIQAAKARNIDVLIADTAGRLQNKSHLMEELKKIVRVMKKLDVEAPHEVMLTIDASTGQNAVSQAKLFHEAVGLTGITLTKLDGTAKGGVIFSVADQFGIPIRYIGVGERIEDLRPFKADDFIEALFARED
In words: other fluorescence titration. Conditions: remark: other sources report otherwise.

B1: Ffh (natural protein)
chain: MFDNLTDRLSRTLRNISGRGRLTEDNVKDTLREVRMALLEADVALPVVREFINRVKEKAVGHEVNKSLTPGQEFVKIVRNELVAAMGEENQTLNLAAQPPAVVLMAGLQGAGKTTSVGKLGKFLREKHKKKVLVVSADVYRPAAIKQLETLAEQVGVDFFPSDVGQKPVDIVNAALKEAKLKFYDVLLVDTAGRLHVDEAMMDEIKQVHASINPVETLFVVDAMTGQDAANTAKAFNEALPLTGVVLTKVDGDARGGAALSIRHITGKPIKFLGVGEKTEALEPFHPDRIASRILGMGDVLSLIEDIESKVDRAQAEKLASKLKKGDGFDLNDFLEQLRQMKNMGGMASLMGKLPGMGQIPDNVKSQMDDKVLVRMEAIINSMTMKERAKPEIIKGSRKRRIAAGCGMQVQDVNRLLKQFDDMQRMMKKMKKGGMAKMMRSMKGMMPPGFPGR
For orientation: Kd means the concentration at which binding is half-saturated. Read a high Kd as weaker binding. In the case of B1, the Kd came to 19.6 µM in test [1], 1.5 µM in test [2], 5.5 µM in test [3] and 21.6 µM in test [4].

B2: Ffh, P0AGD7 1-453 (natural protein)
chain: MFDNLTDRLSRTLRNISGRGRLTEDNVKDTLREVRMALLEADVALPVVREFINRVKEKAVGHEVNKSLTPGQEFVKIVRNELVAAMGEENQTLNLAAQPPAVVLMAGLQGAGKTTSVGKLGKFLREKHKKKVLVVSADVYRPAAIKQLETLAEQVGVDFFPSDVGQKPVDIVNAALKEAKLKFYDVLLVDTAGRLHVDEAMMDEIKQVHASINPVETLFVVDAMTGQDAANTAKAFNEALPLTGVVLTKVDGDARGGAALSIRHITGKPIKFLGVGEKTEALEPFHPDRIASRILGMGDVLSLIEDIESKVDRAQAEKLASKLKKGDGFDLNDFLEQLRQMKNMGGMASLMGKLPGMGQIPDNVKSQMDDKVLVRMEAIINSMTMKERAKPEIIKGSRKRRIAAGCGMQVQDVNRLLKQFDDMQRMMKKMKKGGMAKMMRSMKGMMPPGFPGR
In test [5], B2 gave a fold change of the association rate with C12E8 against without (with 4.5S RNA) of 70 fold, a fold change of the association rate with ΔEspP* against without (with 4.5S RNA) above 40 fold, a fold change of the dissociation rate with C12E8 against without (with 4.5S RNA) of 23 fold and a fold change of the dissociation rate with ΔEspP* against without (with 4.5S RNA) of 10 fold.
